In paper PMC8257531, “ARL15 modulates magnesium homeostasis through N-glycosylation of CNNMs” (Cellular and Molecular Life Sciences: CMLS, 2021):

B1: CNNM2BAT (domain or fragment, UniProt Q9H8M5 429-584, looked up)
chain: KEELNIIQGALELRTKTVEDVMTPLRDCFMITGEAILDFNTMSEIMESGYTRIPVFEGERSNIVDLLFVKDLAFVDPDDCTPLKTITKFYNHPLHFVFNDTKLDAMLEEFKKGKSHLAIVQRVNNEGEGDPFYEVLGIVTLEDVIEEIIKSEILDE
notes: Bateman module (CBS1 and CBS2) of CNNM2, purified; theoretical mass of the monomer printed as 17.72 kDa; also called Bateman module of CNNM2

Assays:
[1] = biological target: B1; assay: SEC; Superdex 200 Increase 10/300 GL, 1 mg/mL protein, 0.5 ml/min, 50 mM Hepes pH 8.5, 200 mM NaCl, 1 mM MgCl2, 1 mM TCEP; masses from a calibration line; conditions: both partners purified
[2] = biological target: the molecule itself; assay: as above

| Binder | stoichiometry N [1] | stoichiometry N [2] |
| --- | --- | --- |
| Pure ARL15 (gel filtration) (natural protein, UniProt Q9NXU5 1-204, looked up, ARL15, purified; theoretical mass of the monomer printed as 19.57 kDa; The printed theoretical mass of 19.57 kDa is below that of whole ARL15, so a shortened construct is likely) MSDLRITEAFLYMDYLCFRALCCKGPPPARPEYDLVCIGLTGSGKTSLLSKLCSESPDNVVSTTGFSIKAVPFQNAILNVKELGGADNIRKYWSRYYQGSQGVIFVLDSASSEDDLEAARNELHSALQHPQLCTLPFLILANHQDKPAARSVQEIKKYFELEPLARGKRWILQPCSLDDMDALKDSFSQLINLLEEKDHEAVRM | 1 ARL15 per CNNM2BAT (2:2) | 2 |
| B1 |  | 2 |
